The record followed here is US20230021388A1 (VELOSBIO, published 2023).

Changes are numbered by the printed parent chain. In names and notes the source's numbering stands.

B1: Ab1 Fab variant H3 W110F (Fab, V domains shown)
VH: QVQLQESGPGLVKPSQTLSLTCTVSGYAFTAYNIHWVRQAPGQGLEWMGSFDPYDGGSSYNQKFKDRLTISKDTSKNQVVLTMTNMDPVDTATYYCARGFYYFDYWGHGTLVTVSS
VL: DIVMTQTPLSLPVTPGEPASISCRASKSISKYLAWYQQKPGQAPRLLIYSGSTLQSGIPPRFSGSGYGTDFTLTINNIESEDAAYYFCQQHDESPYTFGEGTKVEIK
notes: Fab
B2: Ab1 Fab variant H3 W110Y (Fab, V domains shown)
VH: B1 VH with F100Y
VL: B1 VL
notes: Fab
B3: Ab1 Fab variant H3 W110H (Fab, V domains shown)
VH: B1 VH with F100H
VL: B1 VL
notes: Fab
B4: Ab1 Fab variant H3 W110M (Fab, V domains shown)
VH: B1 VH with F100M
VL: B1 VL
notes: Fab
B5: Ab1 Fab variant H1 T32A + L2 L70K (Fab, V domains shown)
VH: B1 VH with T30A, F100W
VL: B1 VL with L54K
notes: Fab
B6: Ab1 Fab variant H1 T32A + L2 T69H, L70K, Q71T (Fab, V domains shown)
VH: B1 VH with T30A, F100W
VL: B1 VL with T53H, L54K, Q55T
notes: Fab
B7: Ab1 Fab variant H1 T32A + L2 T69H (Fab, V domains shown)
VH: B1 VH with T30A, F100W
VL: B1 VL with T53H
notes: Fab
B8: Ab1 Fab variant H1 T32A + L2 T69R, Q71T (Fab, V domains shown)
VH: B1 VH with T30A, F100W
VL: B1 VL with T53R, Q55T
notes: Fab
B9: Ab1 Fab variant H1 T32A + L2 T69H, L70K (Fab, V domains shown)
VH: B1 VH with T30A, F100W
VL: B1 VL with T53H, L54K
notes: Fab
B10: Ab1 Fab variant H1 T32A + L2 T69R (Fab, V domains shown)
VH: B1 VH with T30A, F100W
VL: B1 VL with T53R
notes: Fab
B11: Ab1 Fab variant H1 T32A + L2 L70K, Q71T (Fab, V domains shown)
VH: B1 VH with T30A, F100W
VL: B1 VL with L54K, Q55T
notes: Fab
B12: Ab1 Fab variant H1 T32A + L1 A25P (Fab, V domains shown)
VH: B1 VH with T30A, F100W
VL: B1 VL with A25P
notes: Fab
B13: Ab1 Fab variant H1 T32A + L1 A25P + L2 T69R (Fab, V domains shown)
VH: B1 VH with T30A, F100W
VL: B1 VL with A25P, T53R
notes: Fab
B14: Ab1 Fab variant H1 T32A + L1 A25P + L2 T69H (Fab, V domains shown)
VH: B1 VH with T30A, F100W
VL: B1 VL with A25P, T53H
notes: Fab
B15: Ab1 Fab variant H1 T32A + L1 A25P + L2 L70K (Fab, V domains shown)
VH: B1 VH with T30A, F100W
VL: B1 VL with A25P, L54K
notes: Fab
B16: Ab1 Fab variant H1 T32A + L1 A25P + L2 Q71T (Fab, V domains shown)
VH: B1 VH with T30A, F100W
VL: B1 VL with A25P, Q55T
notes: Fab
B17: Ab1 Fab variant H1 T32E (Fab, V domains shown)
VH: B1 VH with T30E, F100W
VL: B1 VL
notes: Fab
B18: Ab1 Fab variant H1 T32A + L1 K29E + L2 T69R (Fab, V domains shown)
VH: B1 VH with T30A, F100W
VL: B1 VL with K27E, T53R
notes: Fab
B19: Ab1 Fab variant H1 T32A + L1 A25P, K29S + L2 T69R (Fab, V domains shown)
VH: B1 VH with T30A, F100W
VL: B1 VL with A25P, K27S, T53R
notes: Fab
B20: Ab1 Fab variant H1 T32A + L1 K29S + L2 T69R (Fab, V domains shown)
VH: B1 VH with T30A, F100W
VL: B1 VL with K27S, T53R
notes: Fab
B21: Ab1 Fab variant H1 T32A + L1 K29S (Fab, V domains shown)
VH: B1 VH with T30A, F100W
VL: B1 VL with K27S
notes: Fab
B22: Ab1 Fab variant H1 T32A + L1 K29E (Fab, V domains shown)
VH: B1 VH with T30A, F100W
VL: B1 VL with K27E
notes: Fab

T1 sequence (Q01973 30-406 limits assumed): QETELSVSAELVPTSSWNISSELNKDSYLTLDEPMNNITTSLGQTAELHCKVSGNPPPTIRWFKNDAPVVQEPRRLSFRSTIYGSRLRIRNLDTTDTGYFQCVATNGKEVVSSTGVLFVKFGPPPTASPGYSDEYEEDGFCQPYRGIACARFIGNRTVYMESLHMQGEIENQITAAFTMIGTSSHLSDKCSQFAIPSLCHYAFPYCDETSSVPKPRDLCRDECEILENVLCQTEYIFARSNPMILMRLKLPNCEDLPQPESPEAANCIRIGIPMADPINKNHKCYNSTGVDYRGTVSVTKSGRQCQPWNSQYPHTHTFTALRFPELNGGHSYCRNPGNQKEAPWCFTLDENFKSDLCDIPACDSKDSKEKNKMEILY
T2 sequence (Q01973 30-937 limits assumed): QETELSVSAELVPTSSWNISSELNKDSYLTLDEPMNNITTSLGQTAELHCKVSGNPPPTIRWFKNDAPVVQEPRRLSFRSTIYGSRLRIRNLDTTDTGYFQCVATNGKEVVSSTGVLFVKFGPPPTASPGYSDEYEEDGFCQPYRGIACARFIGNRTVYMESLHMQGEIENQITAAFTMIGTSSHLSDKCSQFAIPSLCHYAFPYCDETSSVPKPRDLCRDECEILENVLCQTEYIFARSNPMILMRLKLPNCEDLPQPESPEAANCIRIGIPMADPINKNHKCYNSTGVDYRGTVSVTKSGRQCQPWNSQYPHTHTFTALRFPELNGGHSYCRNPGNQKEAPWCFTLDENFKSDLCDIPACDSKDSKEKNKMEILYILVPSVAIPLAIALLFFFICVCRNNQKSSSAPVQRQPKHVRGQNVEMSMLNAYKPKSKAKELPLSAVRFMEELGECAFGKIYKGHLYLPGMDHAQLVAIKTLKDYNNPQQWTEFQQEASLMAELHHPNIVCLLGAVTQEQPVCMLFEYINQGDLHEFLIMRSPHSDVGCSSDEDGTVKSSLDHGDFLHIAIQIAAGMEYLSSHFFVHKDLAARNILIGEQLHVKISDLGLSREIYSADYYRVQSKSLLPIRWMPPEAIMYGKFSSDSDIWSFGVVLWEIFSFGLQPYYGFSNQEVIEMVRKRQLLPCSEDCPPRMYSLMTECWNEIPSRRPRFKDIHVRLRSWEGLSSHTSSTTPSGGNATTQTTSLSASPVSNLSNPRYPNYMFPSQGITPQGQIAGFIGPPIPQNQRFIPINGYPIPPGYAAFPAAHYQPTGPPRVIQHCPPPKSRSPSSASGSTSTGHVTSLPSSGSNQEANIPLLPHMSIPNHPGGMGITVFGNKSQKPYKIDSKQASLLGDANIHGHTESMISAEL

The first assay addresses T1, recombinant human ROR1 extracellular domain (human, UniProt Q01973 30-406).
T1 construct: biotinylated for the filter lifts; also called huROR1-ECD; human ROR1-ECD
Briefly: ELISA, soluble Fab on coated huROR1-ECD. On the procedure:
(§1) The previously described filter lift assay provides a visual, qualitative assessment of antigen binding (Example 1). In order to assess the ROR1 binding activity of Ab1 Fab in a more quantitative fashion, an ELISA assay was developed. A 96-well Costar-3366 plate was coated with 50 μL/well of 1 μg/mL human ROR1-ECD (ACROBiosystems, cat. #RO1-H522y) in PBS overnight at 4° C. The plate was rinsed once with PBS-T and blocked with 100 μL/well of 5% M-P for 1 h at 25° C. Fab samples were serially diluted 3-fold using 5% M-P and 50 μL/well was incubated for 1 h at 25° C. The plate was washed three times with PBS-T and 50 μL/well anti-human kappa, and HRP conjugate (Southern Biotech, cat. #2060-05) diluted 10,000-fold in 5% M-P was added for 1 h at 25° C. In certain assays (extended wash format), the plate was placed in large volumes (up to 1 L) of PBS-T and incubated, with mixing, for 2-5 h prior to the addition of anti-human kappa, HRP conjugate. The plate was washed three times with PBS-T, and developed with 50 μL/well 1-Step Ultra TMB-ELISA (Thermo Scientific, cat. #34028). The reaction was terminated by the addition of 2 N H2504 and the A450 was determined using a Spectramax plate reader.
(In general: ELISA stands for enzyme-linked immunosorbent assay.)
One may read the Kd as the free concentration of one partner at which half of the binding sites on the other are occupied at equilibrium, for simple one-to-one binding. Regarding B1, the equilibrium dissociation constant (Kd) amounted to 96 nM.

For B2, the Kd was found to be 68 nM.

In the case of B3, the Kd was 110 nM.

In the case of B4, the equilibrium dissociation constant (Kd) stood at 160 nM.

Another assay deals with T1, recombinant human ROR1 extracellular …. The experiment in a line: ELISA with prolonged wash, soluble Fab on coated huROR1-ECD. On the procedure: as §1
(§2) Subsequently, the libraries were screened by capture lift to identify the strongest binding variants. The identity of the variants was determined by DNA sequencing and the relative affinities were characterized using an ELISA (described in Example 2) modified to enable further discrimination between the highest affinity variants. Specifically, following the initial incubation with soluble Fab, the plates were washed for a prolonged time (>1 h) in large volumes of PBS-T. The plates were then developed as described in Example 2.
As to B5, the Kd came to 1.6 nM.

B6: the Kd amounted to 1.4 nM.

For B7, the dissociation constant (Kd) turned out to be 2.3 nM.

For the molecule B8, the dissociation constant Kd was found to be 1.1 nM.

In the case of B9, the Kd is 1.8 nM.

As to B10, the dissociation constant (Kd) came out at 1.1 nM.

On to B11, for which the equilibrium dissociation constant (Kd) turned out to be 1.6 nM.

For the next assay the target is unchanged. The assay is described as above. The source holds these as a separate data set. Here is the method:
as §1, §2
Regarding B12, the Kd turned out to be 1.8 nM.

As for B13, the equilibrium dissociation constant (Kd) worked out at 2.4 nM.

As for B14, the Kd stood at 2.3 nM.

Consider B15, for which the dissociation constant Kd was found to be 2.1 nM.

Regarding B16, the Kd is 2.9 nM.

The next assay has the same target. The experiment in a line: ELISA, soluble Fab on coated huROR1-ECD. This is another data set of the same source.
On to B17, for which the Kd was 3.3 nM.

The target is the same in the next assay. The experiment in a line: ELISA with prolonged wash, soluble Fab on coated huROR1-ECD. This is another data set of the same source. Here is the method: as §1, §2
On to B12, for which the Kd was 1.8 nM.

Turning to B13, the Kd was found to be 2.1 nM.

Consider B18, for which the Kd worked out at 4.8 nM.

Take B19: the Kd worked out at 3.9 nM.

On to B20, for which the Kd worked out at 2.1 nM.

B21: the Kd worked out at 2.1 nM.

Turning to B10, the Kd stood at 2.3 nM.

Regarding B22, the equilibrium dissociation constant (Kd) stood at 3.3 nM.

The target is the same in the next assay. Briefly: ELISA, soluble Fab on coated huROR1-ECD. The source holds these as a separate data set.
With B17, the “fold increase of binding against Ab1” value is approximately 2 fold.

B2: the “fold reduction of binding against Ab1” value fell in the range of 10 to 23 fold.

As for B4, the “fold reduction of binding against Ab1” value is 10 to 23 fold.

The next assay concerns the target T2, human ROR1 on live cells (human, UniProt Q01973 30-937).
T2 construct: ROR1-transfected MEC cells (~56,000 copies/cell) or JeKo-1 cells (~13,000 copies/cell); the cell line is named under assay; also called ROR1-transfected MEC cells; JeKo-1 cells
The experiment in a line: flow cytometry on live JeKo-1 cells, Fab detected with anti-HA-PE. On the procedure: ROR1 binding was quantitated using flow cytometry and 2.5E5 ROR1-transfected MEC cells or JeKo-1 cells for each concentration of Fab variant. The cells were placed in 50 μL of PBS with 2% FBS. Next, the cells were diluted with an equal volume of 2× stock of the test Fab variant and the cells and antibody were co-incubated on ice for 20 min. The cells were then washed 3 times with 300 μL of FACS buffer and were resuspended in 100 μL of a 70-fold dilution of anti-HA.11-PE conjugate, clone 16B12 (BioLegend, cat. #901517) and incubated on ice with reduced light for 20 min. Subsequently, the cells were washed 3 times with 300 μL of FACS buffer and fixed with 2% paraformaldehyde for 10 min at 25° C. The cells then were washed 2 times with 300 μL of FACS buffer and analyzed on a Miltenyi MACSQuant Analyzer.
One may read the EC50 (read off the curve) as the concentration needed to bring the measured effect to its halfway point. With B13, the “EC50 (read off the curve)” value was approximately 1 nM.

With B20, the “EC50 (read off the curve)” value is approximately 1 nM.

Turning to B15, the 50% effective concentration (EC50 (read off the curve)) was approximately 1 nM.

Regarding B21, the 50% effective concentration (EC50 (read off the curve)) is approximately 2 nM.

Turning to B8, the “EC50 (read off the curve)” value is approximately 1 nM.

As to B10, the “EC50 (read off the curve)” value was approximately 2 nM.
